In the nanobody polyreactivity screen of Harvey et al. (2022):

Assay: yeast display, Sf9 membrane polyspecificity reagent, FACS + sequencing; frameworks hold sequencing errors
Summary of the method: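 After 36–48 hours of galactose induction, yeast (Saccharomyces cerevisiae BJ5465) displaying a synthetic nanobody library were stained at 4 °C for 1 hour with 10% biotinylated, detergent-solubilized Sf9 membrane reagent. Streptavidin microbeads enriched the stained cells before FACS sorting into low and high (top ~1%) gates on anti-HA and streptavidin fluorescence. Each clone's polyreactivity label reflects its gate of origin.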

Sequence | polyreactivity (PSR sort gate)
QVQHVESGGGLVQAGGSLRLSCAASGSIFASYAMGWYRLAAGKERELVAAISRRAVLTYYADSVKGRFTISRDNPKNTVYLQMNSLKPEDTAVYFCNARGYSGYQRYGYNYWGQGTQVTVSS | high polyreactivity
QVQLVESGGGLVQAGGSLRLSCAASGRTFEYYAMGWYRQAPGKERELVAAITSGGITYYADSVKGRFTISRDNAKYTVYLQMNSLKPEDTAVYYCNARHRYYRYGYWGQGTQVTVSS | high polyreactivity
QVQLQESGGGLVQAGGSLRLSCAASGTITVLYKMAWFRQEPGKEREFVASINYGTSTYYADSVKGRFTVSRDSAKNTVYLQMNSLKPEDTAVYYCAAAYRWQDVYRYWGQGTQVTVSS | low polyreactivity
QVQLVESGGGLVQAGGSLRLSCAASGLTFWRYTMGWYRPAPGKERELVAVITYRGGSTYYADSVKGRFTISRDNAKNTVYLQMNSLKPEDTAVYYCDAGRRTYGLTYDYWGQGTQVTVSS | high polyreactivity
QVQLVESGGGLVQAGGSLRLSCAASGSTFTGYAMGWYRQAPGKERELVAAISRSGGSTSYADSVKGRFTISRDNAKNTVYLQMNSLKPEDTAVDYCAAQVQGTTRAKQRGGIGELDYWGQGTQVTVSS | low polyreactivity
QVQLVESGGGLDQAGGRLRLICAASGRTFTTYAMGWNRQAPGKERELVASISRRGGSTYYADSVKGRFTISRDNAKNTVYLQMTSLKPEDTAVYYCAAKTGTYRGRQVYTYGYWGQGTQVTVSS | high polyreactivity
QDQLVESVGGLVQAGGSLRLSCAASGITFYYSAMGWDRQAPGKERELVAAISFRGGSTYYADSVKGRFTSSRDNAKNTVYLQMNSLKPEDTAVYYCAAETSPSWYTWVTYDYWGQGTQVTVSS | high polyreactivity
QVHLVETGGCLVQAGGSLRLSCAASGRTFYQNTMGWYRQAPGKERELVAAISSGGSTHYADSVKGRFTISRDNAKNTVYLQMNSLKPEDTAVYYCAKRYFYSYRYGYWGQGTQVTVSS | high polyreactivity
QVQLVESGGGLVQAGGSLRLSCAASGFTFYYYMGCYRQAPGKERELVAAITSGDTTYYADSVKGRFTISRDNAKNTVYLQMNSLKPEDTAVYYCNVDQAIYRWVPWEMDYWGQGTQVTVSS | low polyreactivity
QVQLVESGGGLVQAGGSLRLSCAASGSTFDDYAMGWYRQAPGKERELVAAISYSGGSTYYADSVKGRFTISRDNAKNTVYLQMNSLKPEDTAVYYCAADDLYTDYETWWRRGDYCGQGTQVTVSS | low polyreactivity
QVQLVESGGGLVQAGGSLRLSCAASGMVWYRQAPGKERELVAAITSGDSTNYADSVKGRFTISRDNAKNTVYLQMNCLKPEDTSVYYCAADPDYLYAYFYWGQGTQVSVSS | low polyreactivity
QVQLVESGGGLVQAGGSLRLSCAASGSTFRGYVMGWYRQAPGKERELVAVISYNGGSTYYADSVKGRFTISRDNAKNTVYLQMNSLKPEDTAVYYCAATYFFLYTSWDEYWGQGTQVTVSS | low polyreactivity
QVQLVESGGGLVQAGGSLPLSCAASGRTFYYYAMGWYRQAPGKERELVAAISWSGGRTYYADSVKGSFTISRDNAKNTVYLQMNSLKPADTAVYYCNAEPPRGYTVSSGGEMDYWGQCTQVTVSS | low polyreactivity
QVQLVESGGGLVQAGGSLRLSCAASGRTFEYYAMGWYRQAPGKERELVASITSSGVRTYYADSVKGRFTISRDNAKNTVYLQMNSLKPEDTAVYYCAKRLVYSRWGDYWGQGTQVTVSS | high polyreactivity
QVQLVESGGGLVQAGGSLRLSCAASGRIFPYYAKRWYRQAPGKERELVAAITTRGGSTYDADSVKGRFTISRDNAKNTVYLQMNSLKPEDTAVYYCAAVTFGRMEYCGQGTQVTVSS | low polyreactivity
QVQLVESGGGLVQAGGSLRLSCAASGSIFFFNAMGWYRQAPGKVREFVAAITSSSGRTYYADSVKGRFTISRDNAKNTVYLQMNSLKPEDTAVYYCAAQVPEDTETVDYWGQGTQVTVSS | low polyreactivity

Sequence | polyreactivity (PSR sort gate)
QVQLVESGGGLVQAGGSLRLSCAASGSIFWGNAMGWYRQAPGKERELVAAIRRGTSTYYADSVKGRFTISRDNAKNTVYVQMNSLKPEDTAVYYCAASPFRYVYHFDYWGQGTQVTVSS | high polyreactivity
QVQLVESGGGLVQAGGSLRLSCAASGYILYGYAMGGYRQAPGKERELVAAISNDGSTYYADSVKGRFTISRDNAKNSVYLQMNSLKTEDTAVYYCNAREYGYFKYDYWGQGTQVTVSS | high polyreactivity
QVHLEESGRGLLQAGGSLRLSCDASGSTQNLYVMGWYRQAPGKESELVAAITSRGGRTYYADSVKGRFTISRDNAKNTVYLHMNSLKPEDTAVYYCAATKKTGYYRYYYWGQGTQVTVSS | high polyreactivity
QVQLVESGGGLVQAGGSLRLSCAASGSTFAYYAMGWYSPAPGKERELVAAISSSGGRTYYADSVKGRFTISRDNAKNTVYLQMYSLKPEDTAVYYCAARSPYYSASVRYDYWGQGTQVTVSS | high polyreactivity
QVQLVESGGGLVQAGGSLRLSCAASGIIFDSYAMGWYRQAPGKERELVAAITSRGGRTYYADSVKGRFTISRDNAKNTVSLQMNSLKPEDTAVYYCAARAKYDRRTDGTSGYDYWGQGTQVTVSS | low polyreactivity
QVQLVESGGGLVQAGGSLRLSCAASGRIFPHYAKGWYRQAPGKERELVAAISSGGRTNYADSVKGRFTISRDNAKNTVYIQMNSLKPEDTAVYYYAVDDYVYEMDYWGQGTQVTVSS | high polyreactivity
QVQLVESGGGLVQAGGSLRLSSAASGRIFTYYAMGWYRQAPGKERELVATISRRGGSTYYADSVKGRFTISRDNAKNTVYLQMNSLKPEDTAVYYCNRTYYGYDYWGHGTQVTVSS | high polyreactivity
QVQLVESGGGLVQAGGSLRLSCAASGSIFYYYAMGWYRQAPGKERELVASISSSGSTNYADSVKGRFTISRDNAKNTVYLLMKRLKPEDTAVYYCYADLSLGSYYSYYAYNSWGQGTQVTVSS | low polyreactivity
QVQLVESGGGLVQAGGSLRLSCAASGITYTSYAMGWYRQAPGKERELVAAISSSGGSTYYADSVKGRFTISRDNAKNTVYLQMNSLKPEDTAVYYCIARPRSRSPRVEYDYWGQGTQVTVSS | high polyreactivity
QVQLVESGGGLVQAGGSLRLICAASGFIFASYAMGWYRQSPGKEREFVAAITRRGGTTYYADSVNGRFTISRDNAKNTVYLQMNSLKPEDTAVYYCATAHSRPGYVFDYWGQGTQVTVSS | high polyreactivity
QVQLVESGGGLVQAGGSLRLSCAASGIIFPYNAMGWYRQAPGKERELVAAITGGGSTYYADSVKGRFTISRDNAKNTVYLQMNSLKPEDTAVYYCAADRSGPGYDYWGQGTQVTVSS | low polyreactivity
QVQLVESGGGLVQAGGSLRLSCAASGRTSRYYAMGWYRQAPGKERELVATITRGGTTNYADSVKGRFTISRDNAKNNVYLQMNSLKPEDTAVYYCNKVFRAPGVSDYGYWGQGTQVTVSS | high polyreactivity
QVQLVESGGGLVQAGGSLRLSCAASGIIFQAYAKGWYRQAPGKERELVAAISYSGGSTYYAESVKGRFTISRDNAKNNVDLQMNRLKPEVTAVYYCAAELYRYWFDMYYWGQGTQVTVSS | low polyreactivity
QVQLVESGGGLVQAGGSLRLICAASGKTFSDYAMGWYRQAPGKERELVAAISSSGVRTYYADSVKGRFTISRDNAKNTVYLQMNSLKPEDTAVDDCNAGYVRRYYPASGYGYWGQGTHVTVSS | high polyreactivity
QVQLVESGGGLVQAGGSLRLSCAASGSTFDFNAMGWYRQAPGKERELVAAITGSDGNTYYADSVKGRFTISRDNAKNNVYLQMNTLTPEDTAVYYFAADFSWWSKYVVLYDYWGQGTQVTVSS | low polyreactivity
QVQLVESGGGLVQAGGSLRLSCAASGSTFSYYAMGWYRQAPGKESELVAAISRTAVSTYYADSVKGRFTISRDNAKNTVYLQMYSLKPEDTAVYYCAASHYHGYSLGYDYWGQGTQVTVSS | high polyreactivity
